Measurements from doi:10.1101/2023.09.23.559074, “Direct ionic stress sensing and mitigation by the transcription factor NFAT5” (bioRxiv, 2023).

Target: the molecule itself
Experiment: in vitro phase separation (droplet) assay, fluorescence or brightfield microscopy; purified protein in droplet buffer (20 mM Na-HEPES pH 7.4, 1 mM TCEP) with 5% dextran, NaCl (or other salts) added to the indicated osmolarity; 10 min at room temperature; self-association into droplets

| Protein | binding result |
| --- | --- |
| GFP-CTD (superfolder GFP fused to the C-terminal domain of NFAT5, a.a. 544-1531) (domain or fragment, human, UniProt O94916 544-1531, looked up, NFAT5 (TonEBP), human, 1531 a.a. protein; C-terminal domain (CTD), a.a; 544-1531; The methods for the bacterial construct (pET-28a) say only 'NFAT5 CTD'; also called GFP-NFAT5 CTD; NFAT5 GFP-CTD; not shown: sfGFP, N-terminal, kept) DPAAAGALNVNVKKEISSPARPCSFEEAMKAMKTTGCNLDKVNIIPNALMTPLIPSSMIKSEDVTPMEVTAEKRSSTIFKTTKSVGSTQQTLENISNIAGNGSFSSPSSSHLPSENEKQQQIQPKAYNPETLTTIQTQDISQPGTFPAVSASSQLPNSDALLQQATQFQTRETQSREILQSDGTVVNLSQLTEASQQQQQSPLQEQAQTLQQQISSNIFPSPNSVSQLQNTIQQLQAGSFTGSTASGSSGSVDLVQQVLEAQQQLSSVLFSAPDGNENVQEQLSADIFQQVSQIQSGVSPGMFSSTEPTVHTRPDNLLPGRAESVHPQSENTLSNQQQQQQQQQQVMESSAAMVMEMQQSICQAAAQIQSELFPSTASANGNLQQSPVYQQTSHMMSALSTNEDMQMQCELFSSPPAVSGNETSTTTTQQVATPGTTMFQTSSSGDGEETGTQAKQIQNSVFQTMVQMQHSGDNQPQVNLFSSTKSMMSVQNSGTQQQGNGLFQQGNEMMSLQSGNFLQQSSHSQAQLFHPQNPIADAQNLSQETQGSLFHSPNPIVHSQTSTTSSEQMQPPMFHSQSTIAVLQGSSVPQDQQSTNIFLSQSPMNNLQTNTVAQEAFFAAPNSISPLQSTSNSEQQAAFQQQAPISHIQTPMLSQEQAQPPQQGLFQPQVALGSLPPNPMPQSQQGTMFQSQHSIVAMQSNSPSQEQQQQQQQQQQQQQQQQQSILFSNQNTMATMASPKQPPPNMIFNPNQNPMANQEQQNQSIFHQQSNMAPMNQEQQPMQFQSQSTVSSLQNPGPTQSESSQTPLFHSSPQIQLVQGSPSSQEQQVTLFLSPASMSALQTSINQQDMQQSPLYSPQNNMPGIQGATSSPQPQATLFHNTAGGTMNQLQNSPGSSQQTSGMFLFGIQNNCSQLLTSGPATLPDQLMAISQPGQPQNEGQPPVTTLLSQQMPENSPLASSINTNQNIEKIDLLVSLQNQGNNLTGSF | binds |
| untagged NFAT5 CTD (CTD protein lacking the GFP tag) (domain or fragment, human, UniProt O94916 544-1531, looked up, NFAT5 (TonEBP), human, 1531 a.a. protein; C-terminal domain (CTD), a.a; 544-1531; source: E. coli BL21 (DE3) pLysS, purified from inclusion bodies (8 M urea extraction, Superdex 200)) DPAAAGALNVNVKKEISSPARPCSFEEAMKAMKTTGCNLDKVNIIPNALMTPLIPSSMIKSEDVTPMEVTAEKRSSTIFKTTKSVGSTQQTLENISNIAGNGSFSSPSSSHLPSENEKQQQIQPKAYNPETLTTIQTQDISQPGTFPAVSASSQLPNSDALLQQATQFQTRETQSREILQSDGTVVNLSQLTEASQQQQQSPLQEQAQTLQQQISSNIFPSPNSVSQLQNTIQQLQAGSFTGSTASGSSGSVDLVQQVLEAQQQLSSVLFSAPDGNENVQEQLSADIFQQVSQIQSGVSPGMFSSTEPTVHTRPDNLLPGRAESVHPQSENTLSNQQQQQQQQQQVMESSAAMVMEMQQSICQAAAQIQSELFPSTASANGNLQQSPVYQQTSHMMSALSTNEDMQMQCELFSSPPAVSGNETSTTTTQQVATPGTTMFQTSSSGDGEETGTQAKQIQNSVFQTMVQMQHSGDNQPQVNLFSSTKSMMSVQNSGTQQQGNGLFQQGNEMMSLQSGNFLQQSSHSQAQLFHPQNPIADAQNLSQETQGSLFHSPNPIVHSQTSTTSSEQMQPPMFHSQSTIAVLQGSSVPQDQQSTNIFLSQSPMNNLQTNTVAQEAFFAAPNSISPLQSTSNSEQQAAFQQQAPISHIQTPMLSQEQAQPPQQGLFQPQVALGSLPPNPMPQSQQGTMFQSQHSIVAMQSNSPSQEQQQQQQQQQQQQQQQQQSILFSNQNTMATMASPKQPPPNMIFNPNQNPMANQEQQNQSIFHQQSNMAPMNQEQQPMQFQSQSTVSSLQNPGPTQSESSQTPLFHSSPQIQLVQGSPSSQEQQVTLFLSPASMSALQTSINQQDMQQSPLYSPQNNMPGIQGATSSPQPQATLFHNTAGGTMNQLQNSPGSSQQTSGMFLFGIQNNCSQLLTSGPATLPDQLMAISQPGQPQNEGQPPVTTLLSQQMPENSPLASSINTNQNIEKIDLLVSLQNQGNNLTGSF | binds |
| GFP-PLD (superfolder GFP fused to the prion-like domain of NFAT5, a.a. 999-1454) (domain or fragment, human, UniProt O94916 999-1454, looked up, NFAT5 (TonEBP), human, 1531 a.a. protein; prion-like domain (PLD), a.a; 999-1454; The methods for the bacterial construct say only 'NFAT5 PLD'; also called GFP-NFAT5 PLD; not shown: sfGFP, N-terminal, kept) QIQNSVFQTMVQMQHSGDNQPQVNLFSSTKSMMSVQNSGTQQQGNGLFQQGNEMMSLQSGNFLQQSSHSQAQLFHPQNPIADAQNLSQETQGSLFHSPNPIVHSQTSTTSSEQMQPPMFHSQSTIAVLQGSSVPQDQQSTNIFLSQSPMNNLQTNTVAQEAFFAAPNSISPLQSTSNSEQQAAFQQQAPISHIQTPMLSQEQAQPPQQGLFQPQVALGSLPPNPMPQSQQGTMFQSQHSIVAMQSNSPSQEQQQQQQQQQQQQQQQQQSILFSNQNTMATMASPKQPPPNMIFNPNQNPMANQEQQNQSIFHQQSNMAPMNQEQQPMQFQSQSTVSSLQNPGPTQSESSQTPLFHSSPQIQLVQGSPSSQEQQVTLFLSPASMSALQTSINQQDMQQSPLYSPQNNMPGIQGATSSPQPQATLFHNTAGGTMNQLQNSPGSSQQTSGMFLFGIQNN | binds |
| untagged NFAT5 PLD (PLD protein lacking the GFP tag) (domain or fragment, human, UniProt O94916 999-1454, looked up, NFAT5 (TonEBP), human, 1531 a.a. protein; prion-like domain (PLD), a.a; 999-1454; source: E. coli BL21 (DE3) pLysS, purified from inclusion bodies (8 M urea extraction, Superdex 200)) QIQNSVFQTMVQMQHSGDNQPQVNLFSSTKSMMSVQNSGTQQQGNGLFQQGNEMMSLQSGNFLQQSSHSQAQLFHPQNPIADAQNLSQETQGSLFHSPNPIVHSQTSTTSSEQMQPPMFHSQSTIAVLQGSSVPQDQQSTNIFLSQSPMNNLQTNTVAQEAFFAAPNSISPLQSTSNSEQQAAFQQQAPISHIQTPMLSQEQAQPPQQGLFQPQVALGSLPPNPMPQSQQGTMFQSQHSIVAMQSNSPSQEQQQQQQQQQQQQQQQQQSILFSNQNTMATMASPKQPPPNMIFNPNQNPMANQEQQNQSIFHQQSNMAPMNQEQQPMQFQSQSTVSSLQNPGPTQSESSQTPLFHSSPQIQLVQGSPSSQEQQVTLFLSPASMSALQTSINQQDMQQSPLYSPQNNMPGIQGATSSPQPQATLFHNTAGGTMNQLQNSPGSSQQTSGMFLFGIQNN | binds |
